Laboratory results as given in PMC11324738.

Columns and labels:
[1] = molecular target: recombinant LC3 protein, Q9GZQ8; experiment: ELISA; conditions: chain shown with the change, recombinant LC3 coated on the plate, biotin-labeled synthetic peptide, read off a plot
[2] = molecular target: endogenous LC3 (human cells), Q9GZQ8; experiment: Proximity Ligation Assay; conditions: chain shown with the change; HeLa cells transfected with GPR50-FLAG constructs; antibodies against LC3 and FLAG; n = 178–208 cells per group from 3 independent experiments; parent: est. 25; read off a plot
[3] = molecular target: GFP-LC3, Q9GZQ8; experiment: Co-immunoprecipitation; conditions: chain shown with the change; HEK293T cells co-transfected with GFP-LC3 and GPR50-FLAG constructs; IP anti-FLAG; n = 4 independent experiments; parent: est. 1.0; read off a plot

| Binder | response ([1]; peptide 1 µM, parent: est. 0.47) | response ([1]; peptide 2.5 µM, parent: est. 1.2) | response ([1]; peptide 5 µM, parent: est. 3.2) | response ([1]; peptide 10 µM, parent: est. 3.7) | response ([1]; peptide 20 µM, parent: est. 3.7) | response ([1]; peptide 40 µM, parent: est. 3.7) | response (DUO (+) spots/cell) [2] | ratio to parent [3] |
| --- | --- | --- | --- | --- | --- | --- | --- | --- |
| NAVIYGLLNENFRREAAAAFHAM [biotin-labeled synthetic GPR50 LIR peptide, a.a. 290-312 (WT), Q13585 Y305A; W306A; T307A; I308A] | 0.38 OD (562 nm) | 0.35 OD (562 nm) | 0.38 OD (562 nm) | 0.4 OD (562 nm) | 0.4 OD (562 nm) | 0.5 OD (562 nm) | – | – |
| GPR50-FLAG WT, Q13585 Y305A; W306A; T307A; I308A (protein) MGPTLAVPTPYGCIGCKLPQPEYPPALIIFMFCAMVITIVVDLIGNSMVILAVTKNKKLRNSGNIFVVSLSVADMLVAIYPYPLMLHAMSIGGWDLSQLQCQMVGFITGLSVVGSIFNIVAIAINRYCYICHSLQYERIFSVRNTCIYLVITWIMTVLAVLPNMYIGTIEYDPRTYTCIFNYLNNPVFTVTIVCIHFVLPLLIVGFCYVRIWTKVLAARDPAGQNPDNQLAEVRNFLTMFVIFLLFAVCWCPINVLTVLVAVSPKEMAGKIPNWLYLAAYFIAYFNSCLNAVIYGLLNENFRREAAAAFHAMRHPIIFFSGLISDIREMQEARTLARARAHARDQAREQDRAHACPAVEETPMNVRNVPLPGDAAAGHPDRASGHPKPHSRSSSAYRKSASTHHKSVFSHSKAASGHLKPVSGHSKPASGHPKSATVYPKPASVHFKADSVHFKGDSVHFKPDSVHFKPASSNPKPITGHHVSAGSHSKSAFSAATSHPKPTTGHIKPATSHAEPTTADYPKPATTSHPKPTAADNPELSASHCPEIPAIAHPVSDDSDLPESASSPAAGPTKPAASQLESDTIADLPDPTVVTTSTNDYHDVVVIDVEDDPDEMAV | – | – | – | – | – | – | 5.5 | 0.65 |
